Source: US20260242735A1 (UNIVERSIT T BASEL, published 2026)

Tests used:
Test in all cases: BLI (Octet R8), avidity format: biotinylated CD33 on streptavidin sensor, Refmab #3 as analyte at 500 nM;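 also: analyte association recorded over 300 s, then dissociation followed for 900 s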
[1] = target: CD33 variant N20G (recombinant, biotinylated) (human, UniProt P20138 21-259, biotinylated with EZ-Link Sulfo-NHS-LC-Biotin (sites not given))
[2] = target: CD33 variant F21Q (recombinant, biotinylated) (human, UniProt P20138 22-259, biotinylated with EZ-Link Sulfo-NHS-LC-Biotin (sites not given))
[3] = target: CD33 variant N20K (recombinant, biotinylated) (human, UniProt P20138 21-259, biotinylated with EZ-Link Sulfo-NHS-LC-Biotin (sites not given))
[4] = target: CD33 variant Y50R (recombinant, biotinylated) (human, UniProt P20138 18-259, biotinylated with EZ-Link Sulfo-NHS-LC-Biotin (sites not given))
[5] = target: CD33 variant F21N (recombinant, biotinylated) (human, UniProt P20138 22-259, biotinylated with EZ-Link Sulfo-NHS-LC-Biotin (sites not given))
[6] = target: CD33 variant F21M (recombinant, biotinylated) (human, UniProt P20138 22-259, biotinylated with EZ-Link Sulfo-NHS-LC-Biotin (sites not given))
[7] = target: CD33 variant N20V (recombinant, biotinylated) (human, UniProt P20138 21-259, biotinylated with EZ-Link Sulfo-NHS-LC-Biotin (sites not given))
[8] = target: CD33 double variant Y50H_H49H (recombinant, biotinylated) (human, UniProt P20138 18-259, biotinylated with EZ-Link Sulfo-NHS-LC-Biotin (sites not given))
[9] = target: CD33 variant F21S (recombinant, biotinylated) (human, UniProt P20138 22-259, biotinylated with EZ-Link Sulfo-NHS-LC-Biotin (sites not given))
[10] = target: CD33 variant W22D (recombinant, biotinylated) (human, UniProt P20138 18-259, biotinylated with EZ-Link Sulfo-NHS-LC-Biotin (sites not given))
[11] = target: CD33 variant N20H (recombinant, biotinylated) (human, UniProt P20138 21-259, biotinylated with EZ-Link Sulfo-NHS-LC-Biotin (sites not given))
[12] = target: CD33 variant W22K (recombinant, biotinylated) (human, UniProt P20138 18-259, biotinylated with EZ-Link Sulfo-NHS-LC-Biotin (sites not given))
[13] = target: CD33 variant W22E (recombinant, biotinylated) (human, UniProt P20138 18-259, biotinylated with EZ-Link Sulfo-NHS-LC-Biotin (sites not given))
[14] = target: CD33 variant W22R (recombinant, biotinylated) (human, UniProt P20138 18-259, biotinylated with EZ-Link Sulfo-NHS-LC-Biotin (sites not given))
[15] = target: CD33 variant Y50K (recombinant, biotinylated) (human, UniProt P20138 18-259, biotinylated with EZ-Link Sulfo-NHS-LC-Biotin (sites not given))
[16] = target: CD33 variant Y50D (recombinant, biotinylated) (human, UniProt P20138 18-259, biotinylated with EZ-Link Sulfo-NHS-LC-Biotin (sites not given))
[17] = target: T1, CD33 wild type (recombinant, biotinylated) (human, UniProt P20138 18-259, biotinylated with EZ-Link Sulfo-NHS-LC-Biotin (sites not given))
T1 construct: also called WT; CD33 wt

[18] = target: CD33 variant F44P (recombinant, biotinylated) (human, UniProt P20138 18-259, biotinylated with EZ-Link Sulfo-NHS-LC-Biotin (sites not given))
[19] = target: CD33 variant N20E (recombinant, biotinylated) (human, UniProt P20138 21-259, biotinylated with EZ-Link Sulfo-NHS-LC-Biotin (sites not given))
[20] = target: CD33 variant F21L (recombinant, biotinylated) (human, UniProt P20138 22-259, biotinylated with EZ-Link Sulfo-NHS-LC-Biotin (sites not given))
[21] = target: CD33 variant W22T (recombinant, biotinylated) (human, UniProt P20138 18-259, biotinylated with EZ-Link Sulfo-NHS-LC-Biotin (sites not given))
[22] = target: CD33 variant F21H (recombinant, biotinylated) (human, UniProt P20138 22-259, biotinylated with EZ-Link Sulfo-NHS-LC-Biotin (sites not given))
[23] = target: CD33 variant F21V (recombinant, biotinylated) (human, UniProt P20138 22-259, biotinylated with EZ-Link Sulfo-NHS-LC-Biotin (sites not given))
[24] = target: CD33 variant F21I (recombinant, biotinylated) (human, UniProt P20138 22-259, biotinylated with EZ-Link Sulfo-NHS-LC-Biotin (sites not given))
CD33 variant F21I (recombinant, biotinylated), sequence (P20138 other isoform, or with tags, fused parts or gaps F21I F21I): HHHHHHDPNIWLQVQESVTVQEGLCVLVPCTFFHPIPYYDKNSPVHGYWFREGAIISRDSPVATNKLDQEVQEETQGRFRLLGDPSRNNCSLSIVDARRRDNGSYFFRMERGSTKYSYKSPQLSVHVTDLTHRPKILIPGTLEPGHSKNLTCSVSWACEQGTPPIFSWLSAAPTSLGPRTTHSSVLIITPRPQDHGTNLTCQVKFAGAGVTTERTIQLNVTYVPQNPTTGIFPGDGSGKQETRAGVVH

CD33 variant Y50R (recombinant, biotinylated), sequence (P20138 other isoform, or with tags, fused parts or gaps Y50R Y50R): as the sequence (P20138 other isoform, or with tags, fused parts or gaps F21I F21I) above, with I10F, Y39R counted along it
CD33 variant F21Q (recombinant, biotinylated), sequence (P20138 other isoform, or with tags, fused parts or gaps F21Q F21Q): as the sequence (P20138 other isoform, or with tags, fused parts or gaps F21I F21I) above, with I10Q counted along it
CD33 variant Y50K (recombinant, biotinylated), sequence (P20138 other isoform, or with tags, fused parts or gaps Y50K Y50K): as the sequence (P20138 other isoform, or with tags, fused parts or gaps F21I F21I) above, with I10F, Y39K counted along it
CD33 variant F21L (recombinant, biotinylated), sequence (P20138 other isoform, or with tags, fused parts or gaps F21L F21L): as the sequence (P20138 other isoform, or with tags, fused parts or gaps F21I F21I) above, with I10L counted along it
CD33 variant F21V (recombinant, biotinylated), sequence (P20138 other isoform, or with tags, fused parts or gaps F21V F21V): as the sequence (P20138 other isoform, or with tags, fused parts or gaps F21I F21I) above, with I10V counted along it
CD33 variant N20V (recombinant, biotinylated), sequence (P20138 other isoform, or with tags, fused parts or gaps N20V N20V): as the sequence (P20138 other isoform, or with tags, fused parts or gaps F21I F21I) above, with N9V, I10F counted along it
CD33 variant Y50D (recombinant, biotinylated), sequence (P20138 other isoform, or with tags, fused parts or gaps Y50D Y50D): as the sequence (P20138 other isoform, or with tags, fused parts or gaps F21I F21I) above, with I10F, Y39D counted along it
CD33 variant F44P (recombinant, biotinylated), sequence (P20138 other isoform, or with tags, fused parts or gaps F44P F44P): as the sequence (P20138 other isoform, or with tags, fused parts or gaps F21I F21I) above, with I10F, F33P counted along it
CD33 variant W22K (recombinant, biotinylated), sequence (P20138 other isoform, or with tags, fused parts or gaps W22K W22K): as the sequence (P20138 other isoform, or with tags, fused parts or gaps F21I F21I) above, with I10F, W11K counted along it
CD33 variant W22D (recombinant, biotinylated), sequence (P20138 other isoform, or with tags, fused parts or gaps W22D W22D): as the sequence (P20138 other isoform, or with tags, fused parts or gaps F21I F21I) above, with I10F, W11D counted along it
T1 sequence (P20138 other isoform, or with tags, fused parts or gaps): as the sequence (P20138 other isoform, or with tags, fused parts or gaps F21I F21I) above, with I10F counted along it
CD33 variant F21M (recombinant, biotinylated), sequence (P20138 other isoform, or with tags, fused parts or gaps F21M F21M): as the sequence (P20138 other isoform, or with tags, fused parts or gaps F21I F21I) above, with I10M counted along it
CD33 variant F21H (recombinant, biotinylated), sequence (P20138 other isoform, or with tags, fused parts or gaps F21H F21H): as the sequence (P20138 other isoform, or with tags, fused parts or gaps F21I F21I) above, with I10H counted along it
CD33 variant N20H (recombinant, biotinylated), sequence (P20138 other isoform, or with tags, fused parts or gaps N20H N20H): as the sequence (P20138 other isoform, or with tags, fused parts or gaps F21I F21I) above, with N9H, I10F counted along it
CD33 variant N20K (recombinant, biotinylated), sequence (P20138 other isoform, or with tags, fused parts or gaps N20K N20K): as the sequence (P20138 other isoform, or with tags, fused parts or gaps F21I F21I) above, with N9K, I10F counted along it
CD33 variant N20E (recombinant, biotinylated), sequence (P20138 other isoform, or with tags, fused parts or gaps N20E N20E): as the sequence (P20138 other isoform, or with tags, fused parts or gaps F21I F21I) above, with N9E, I10F counted along it
CD33 variant F21N (recombinant, biotinylated), sequence (P20138 other isoform, or with tags, fused parts or gaps F21N F21N): as the sequence (P20138 other isoform, or with tags, fused parts or gaps F21I F21I) above, with I10N counted along it
CD33 variant W22R (recombinant, biotinylated), sequence (P20138 other isoform, or with tags, fused parts or gaps W22R W22R): as the sequence (P20138 other isoform, or with tags, fused parts or gaps F21I F21I) above, with I10F, W11R counted along it

B1: Refmab #3 (antibody, human IgG1, V domains shown)
VH: QVQLVQSGAEVKKPGSSVKVSCKASGYTFTDYNMHWVRQAPGQGLEWIGYIYPYNGGTGYNQKFKSKATITADESTNTAYMELSSLRSEDTAVYYCARGRPAMDYWGQGTLVTVSS
VL: DIQMTQSPSSLSASVGDRVTITCRASESVDNYGISFMNWFQQKPGKAPKLLIYAASNQGSGVPSRFSGSGSGTDFTLTISSLQPDDFATYYCQQSKEVPWTFGQGTKVEIK
[1]
  % WT binding: 0 % WT binding
[2]
  % WT binding: 0 % WT binding
[3]
  % WT binding: 0 % WT binding
[4]
  % WT binding: 93.1 % WT binding
[5]
  % WT binding: 0 % WT binding
[6]
  % WT binding: 0 % WT binding
[7]
  % WT binding: 6.62 % WT binding
[8]
  % WT binding: 58.5 % WT binding
[9]
  % WT binding: 0 % WT binding
[10]
  % WT binding: 6.42 % WT binding
[11]
  % WT binding: 5.39 % WT binding
[12]
  % WT binding: 0 % WT binding
[13]
  % WT binding: 23.5 % WT binding
[14]
  % WT binding: 0.86 % WT binding
[15]
  % WT binding: 73.9 % WT binding
[16]
  % WT binding: 128 % WT binding
[17]
  % WT binding: 100 % WT binding
[18]
  % WT binding: 0 % WT binding
[19]
  % WT binding: 0 % WT binding
[20]
  % WT binding: 0 % WT binding
[21]
  % WT binding: 5.25 % WT binding
[22]
  % WT binding: 0 % WT binding
[23]
  % WT binding: 0 % WT binding
[24]
  % WT binding: 0 % WT binding
